Columns and labels:
biotinylated-Aβ42 = biotinylated-Aβ42 (Homo sapiens, UniProt P05067); assay: Single-molecule TIRF imaging of Cy3-CP on immobilized biotinylated Aβ42; assay type: binding
Aβ42 = Aβ42 (Homo sapiens, UniProt P05067); assay: Fluorescence polarization; assay type: binding; settings: read-out: apparent Kd for the Aβ42/CP interaction; fluorescence polarization of FAM-Aβ42 with increasing concentrations of CP
[1] = Fluorescence spectra of FAM-Aβ42 during incubation in PBS; assay type: physicochemical; settings: PBS buffer, 0 to 60 minutes, in the presence of CP

Sequence of biotinylated-Aβ42 (P05067 672-713): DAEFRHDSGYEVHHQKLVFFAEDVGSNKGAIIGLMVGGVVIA
Sequence of Aβ42 (P05067 672-713, one chain of several): as the sequence (P05067 672-713) above

TIRF image brightness of CP/Aβ versus CP alone (biotinylated-Aβ42; Cy3-labeled CP, imaging for 10 minutes): much higher | half-lifetime of stable binding (biotinylated-Aβ42; TIRF, 100 nM CP-Cy3, no Vc): ~62.3 s | half-lifetime of transient binding (biotinylated-Aβ42; TIRF, 100 nM CP-Cy3, no Vc): about 14.6 s | stable K(slow) of CP/Aβ binding (biotinylated-Aβ42; TIRF, 100 nM CP-Cy3, no Vc, unit not given): about 0.011 | half-lifetime of stable binding with Vc (biotinylated-Aβ42; TIRF, 100 nM CP-Cy3 with 250 μM Vc): 39.0 s | Kd (Aβ42): 123 ± 6.7 nM
B1: ceruloplasmin (protein)
chain: KEKHYYIGIIETTWDYASDHGEKKLISVDTEHSNIYLQNGPDRIGRLYKKALYLQYTDETFRTTIEKPVWLGFLGPIIKAETGDKVYVHLKNLASRPYTFHSHGITYYKEHEGAIYPDNTTDFQRADDKVYPGEQYTYMLLATEEQSPGEGDGNCVTRIYHSHIDAPKDIASGLIGPLIICKKDSLDKEKEKHIDREFVVMFSVVDENFSWYLEDNIKTYCSEPEKVDKDNEDFQESNRMYSVNGYTFGSLPGLSMCAEDRVKWYLFGMGNEVDVHAAFFHGQALTNKNYRIDTINLFPATLFDAYMVAQNPGEWMLSCQNLNHLKAGLQAFFQVQECNKSSSKDNIRGKHVRHYYIAAEEIIWNYAPSGIDIFTKENLTAPGSDSAVFFEQGTTRIGGSYKKLVYREYTDASFTNRKERGPEEEHLGILGPVIWAEVGDTIRVTFHNKGAYPLSIEPIGVRFNKNNEGTYYSPNYNPQSRSVPPSASHVAPTETFTYEWTVPKEVGPTNADPVCLAKMYYSAVEPTKDIFTGLIGPMKICKKGSLHANGRQKDVDKEFYLFPTVFDENESLLLEDNIRMFTTAPDQVDKEDEDFQESNKMHSMNGFMYGNQPGLTMCKGDSVVWYLFSAGNEADVHGIYFSGNTYLWRGERRDTANLFPQTSLTLHMWPDTEGTFNVECLTTDHYTGGMKQKYTVNQCRRQSEDSTFYLGERTYYIAAVEVEWDYSPQREWEKELHHLQEQNVSNAFLDKGEFYIGSKYKKVVYRQYTDSTFRVPVERKAEEEHLGILGPQLHADVGDKVKIIFKNMATRPYSIHAHGVQTESSTVTPTLPGETLTYVWKIPERSGAGTEDSACIPWAYYSTVDQVKDLYSGLIGPLIVCRRPYLKVFNPRRKLEFALLFLVFDENESWYLDDNIKTYSDHPEKVNKDDEEFIESNKMHAINGRMFGNLQGLTMHVGDEVNWYLMGMGNEIDLHTVHFHGHSFQYKHRGVYSSDVFDIFPGTYQTLEMFPRTPGIWLLHCHVTDHIHAGMETTYTVLQNEDTKSG
effect of CP on the fluorescence intensity decrease of FAM-Aβ42 [1]: considerably attenuated
